Legend:
[1] = biological target: Porcine circovirus (PCV) grown in PS cell culture (porcine circovirus); assay: ELISA, PCV supernatant adsorbed to the plate at virus dilution 1:200
[2] = biological target: Porcine circovirus (PCV) grown in PS cell culture (porcine circovirus); assay: ELISA, PCV supernatant adsorbed to the plate at virus dilution 1:400
[3] = biological target: Porcine circovirus (PCV) grown in PS cell culture (porcine circovirus); assay: ELISA, PCV supernatant adsorbed to the plate at virus dilution 1:800
[4] = biological target: Porcine circovirus (PCV) grown in PS cell culture (porcine circovirus); assay: ELISA, PCV supernatant adsorbed to the plate at virus dilution 1:1600
[5] = biological target: Porcine circovirus (PCV) grown in PS cell culture (porcine circovirus); assay: ELISA, PCV supernatant adsorbed to the plate at virus dilution 1:3200
[6] = biological target: Porcine circovirus (PCV) grown in PS cell culture (porcine circovirus); assay: ELISA, PCV supernatant adsorbed to the plate at virus dilution 1:6400

## Human immunoglobulin concentrate (Beriglobin P)
[1]
  extinction: > 2 extinction
[2]
  extinction: 1.98 extinction
[3]
  extinction: 1.17 extinction
[4]
  extinction: 0.726 extinction
[5]
  extinction: 0.268 extinction
[6]
  extinction: 0.381 extinction

Source: patent US6573081
